Data from patent publication US20250011456A1, “ANTIBODIES AGAINST CD14 AND USES THEREOF” (Villanelle Life Science Inc, priority 2023, published 2025).
Several values for one entry are separate records, joined by “and”; a condition that tells them apart may be missing. Equal values may be shown once.

Assays:
[1] = system: CD14 positive recurrent bladder cancer patient-derived xenograft (PDX); experiment: Amount of anti-CD14-IgG1 (5-40 mg/kg) for tumor treatment in PDX mice (tumor length, width, volume, tumor weight; Example 7); assay type: in vivo; conditions: for Tumor Length / Tumor Volume / Tumor Width: per mouse 1-5; for Tumor weight after 28 days: individual mice 1-5
Source text: After removing the primary tumor tissue from the patient, the tissue was temporarily placed in a complete culture medium containing RPMI1640 (Gibco Roswell Park Memorial Institute 1640 Media)+PS (penicillin and streptomycin)+10% FBS (Fetal bovine serum). The tissue was then transported to a sterile operating room within an SPF-grade (Specific Pathogen Free) animal facility. The tumor tissue was cut to an appropriate size (5 millimeters (mm) in diameter). Severely immunodeficient NSG (NOD scid gamma mouse) mice were anesthetized using an isoflurane respirator. The tumor was transplanted subcutaneously into the right rib area through surgery. When the tumor volume reached 1 cm^3, it was passaged following the same procedure, and after expanding for three generations, the tumor became stable for use in formal experiments. During the experiment, passaging and expansion were performed as needed. When the tumor volume reached 100 mm^3, the mice were divided into groups according to the experimental requirements and treated with drugs.
To evaluate concentrations for the anti-CD14-IgG1 antibody, PDX mice were treated with five different concentrations of the IgG1 antibody over a period of 28 days. For these experiments, drug administration on the PDX mice was performed intravenously on alternating 4 days and 3 days.
The five different concentrations of the anti-CD14-IgG1 antibody tested include 5 mg/kg, 10 mg/kg, 15 mg/kg, 25 mg/kg, and 40 mg/kg. A control regimen was utilized as a comparative example. […] The non-specific IgG1 has no binding affinity to antigen. […] Tumor weight and tumor volume were calculated as described above.

[2] = target: T1, recombinant human CD14 (B294801, histidine tagged) (Homo sapiens, UniProt P08571); experiment: Biacore 8K kinetic and affinity test of humanized antibodies (Example 8); assay type: binding; conditions: Biacore 8K, analyte B294801 0.78125-25 nM, capture 1 μg/mL
T1 construct: His; purchased Shanghai BaiYing Biotechnology Co., Ltd B294801 (Batch number 20200518A22)
T1 sequence (P08571 20-345): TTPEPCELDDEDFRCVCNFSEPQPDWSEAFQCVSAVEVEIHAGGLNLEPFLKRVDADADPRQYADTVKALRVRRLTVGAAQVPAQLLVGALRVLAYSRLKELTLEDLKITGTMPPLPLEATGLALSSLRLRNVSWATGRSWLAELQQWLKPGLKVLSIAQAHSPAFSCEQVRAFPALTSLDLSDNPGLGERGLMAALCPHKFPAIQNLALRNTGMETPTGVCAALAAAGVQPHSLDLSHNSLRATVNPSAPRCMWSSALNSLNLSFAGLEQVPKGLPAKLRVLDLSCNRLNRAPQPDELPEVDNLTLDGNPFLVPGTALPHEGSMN
Description: Experimental reagents and consumables included Protein A chip (Cytiva, 29127556). Main instruments and equipment included Biacore 8K (Cytiva), shaker (Taicang Huamei), ELISA system (Molecular Devices), centrifuge (Baiyang), ultrapure water system (Millipore), and thermostatic incubator (BLUE PARD).
The antigen used for the binding affinity measurements is B294801. This antigen is a recombinant human CD14 antigen that is histidine tagged and has a molecular weight of 36 kDa. B294801 was purchased from Shanghai BaiYing Biotechnology Co., Ltd (name: Recombinant Human CD14/His Protein; Batch number 20200518A22). D6DD3D001 is a mouse antibody, and D6DD3D002-D6DD3D0016 are humanized antibodies. The antibodies are recombinant, human (hFc Tag). Selected parameters of the experimental samples are shown in Table 8-1, with MW referring to molecular weight in kiloDaltons (kDa).
The Biacore 8K platform was used to test the kinetic and affinity properties of the antibody. The operation was carried out according to the system instructions and indications.
The equilibrium dissociation constant (KD) reflects the affinity of the antibody to the target, with a smaller value indicating a stronger affinity. KD (in units of molarity) is determined by the ratio of the dissociation rate constant (koff) and the association rate constant (kon), that is, KD=Koff/kon.
15 humanized antibodies (numbered D6DD3D002-D6DD3D0016) and 1 mouse antibody (number D6DD3D001) were tested. For the experiments, the analyte solution comprises the B294801 antigen with an analyte concentration of 0.78125 nM, 1.5625 nM, 3.125 nM, 6.25 nM, 12.5 nM, and 25 nM. The capture concentration was 1 μg/mL. In Table 8-3, the change factor is the ratio of the equilibrium dissociation constant KD of the humanized to mouse antibody, and reflects the change in affinity after humanization.

[3] = Day 4, IgG1 (10 mg/kg), 10 mg/kg
[4] = Day 11, IgG1 (5 mg/kg), 5 mg/kg
[5] = Day 14, IgG1 (5 mg/kg), 5 mg/kg
[6] = Day 18, IgG1 (5 mg/kg), 5 mg/kg
[7] = Day 21, IgG1 (5 mg/kg), 5 mg/kg
[8] = Day 25, IgG1 (5 mg/kg), 5 mg/kg
[9] = Day 28, IgG1 (5 mg/kg), 5 mg/kg

B1: D6DD3D001: mouse-derived anti-CD14 IgG1 antibody; VH SEQ ID NO: 1, VL SEQ ID NO: 3, heavy chain SEQ ID NO: 2, light chain SEQ ID NO: 4 (antibody)
heavy: DVQLQQSGPGLVKPSQSLSLTCTVTGYSITSDSAWNWIRQFPGNRLEWMGYISYSGSTSYNPSLKSRISITRDTSKNQFFLQLNSVTTEDTATYYCVRGLRFAYWGQGTLVTVSSPSVFLFPPKPKDTLMISRTPEVTCVVVDVSHEDPEVKFNWYVDGVEVHNAKTKPREEQYNSTYRVVSVLTVLHQDWLNGKEYKCKVSNKALPAPIEKTISKAKGQPREPQVYTLPPSREEMTKNQVSLTCLVKGFYPSDIAVEWESNGQPENNYKTTPPVLDSDGSFFLYSKLTVDKSRWQQGNVFSCSVMHEALHNHYTQKSLSLSPGK
light: DIVLTQSPASLAVSLGQRATISCRASESVDSYVNSFLHWYQQKPGQPPKLLIYRASNLQSGIPARFSGSGSRTDFTLTINPVEADDVATYYCQQSNEDPYTFGGGTKLEIKRTVAAPSVFIFPPSDEQLKSGTASVVCLLNNFYPREAKVQWKVDNALQSGNSQESVTEQDSKDSTYSLSSTLTLSKADYEKHKVYACEVTHQGLSSPVTKSFNRGEC
- Tumor Length ([1]; Day 0, IgG1 (5 mg/kg), 5 mg/kg): 4.41 mm and 4.54 mm and 4.71 mm and 5.12 mm and 4.93 mm
- Tumor Volume ([1]; Day 0, IgG1 (5 mg/kg), 5 mg/kg): 20.01 mm^3 and 19.41 mm^3 and 19.14 mm^3 and 19.44 mm^3 and 19.33 mm^3
- Tumor Volume ([1]; Day 0, IgG1 (10 mg/kg), 10 mg/kg): 59.69 mm^3 and 68.55 mm^3 and 77.15 mm^3 and 79.05 mm^3 and 79.08 mm^3
- Tumor Length ([1]; Day 4, IgG1 (5 mg/kg), 5 mg/kg): 5.58 mm and 6.11 mm and 6.53 mm and 5.89 mm and 6.64 mm
- Tumor Volume ([1]; Day 4, IgG1 (5 mg/kg), 5 mg/kg): 79.57 mm^3 and 87.80 mm^3 and 92.05 mm^3 and 94.26 mm^3 and 105.50 mm^3
- Tumor Width ([1]; Day 4, IgG1 (5 mg/kg), 5 mg/kg): 5.22 mm and 5.24 mm and 5.19 mm and 5.53 mm and 5.51 mm
- Tumor Length [1, 3]: 5.95 mm and 6.55 mm
- Tumor Volume [1, 3]: 81.63 mm^3 and 82.98 mm^3 and 85.32 mm^3 and 88.96 mm^3 and 108.37 mm^3
- Tumor Width [1, 3]: 5.12 mm
- Tumor Volume ([1]; Day 4, IgG1 (15 mg/kg), 15 mg/kg): 76.19 mm^3 and 77.75 mm^3 and 81.95 mm^3 and 87.59 mm^3 and 90.56 mm^3
- Tumor Length ([1]; Day 7, IgG1 (5 mg/kg), 5 mg/kg): 7.84 mm and 6.11 mm and 6.37 mm and 6.61 mm and 6.56 mm
- Tumor Volume ([1]; Day 7, IgG1 (5 mg/kg), 5 mg/kg): 103.81 mm^3 and 104.99 mm^3 and 109.45 mm^3 and 121.23 mm^3 and 132.82 mm^3
- Tumor Width ([1]; Day 7, IgG1 (5 mg/kg), 5 mg/kg): 5.03 mm and 5.73 mm (2×) and 5.92 mm and 6.22 mm
- Tumor Volume ([1]; Day 7, IgG1 (10 mg/kg), 10 mg/kg): 112.99 mm^3 and 113.39 mm^3 and 121.55 mm^3 and 122.33 mm^3 and 133.44 mm^3
- Tumor Volume ([1]; Day 7, IgG1 (15 mg/kg), 15 mg/kg): 99.31 mm^3 and 113.51 mm^3 and 118.44 mm^3 and 127.47 mm^3 and 152.88 mm^3
- Tumor Length [1, 4]: 6.48 mm and 6.63 mm and 6.74 mm and 6.44 mm and 7.52 mm
- Tumor Volume [1, 4]: 92.40 mm^3 and 103.06 mm^3 and 128.68 mm^3 and 130.81 mm^3 and 158.69 mm^3
- Tumor Width [1, 4]: 5.22 mm and 5.45 mm and 6.04 mm and 6.23 mm and 6.35 mm
- Tumor Volume ([1]; Day 11, IgG1 (10 mg/kg), 10 mg/kg): 100.68 mm^3 and 105.14 mm^3 and 112.60 mm^3 and 143.90 mm^3 and 170.28 mm^3
- Tumor Length [1, 5]: 7.14 mm and 6.88 mm and 7.56 mm and 7.02 mm and 8.46 mm
- Tumor Volume [1, 5]: 128.31 mm^3 and 135.30 mm^3 and 170.26 mm^3 and 171.88 mm^3 and 184.76 mm^3
- Tumor Width [1, 5]: 5.86 mm and 6.13 mm and 6.56 mm and 6.84 mm and 6.46 mm
- Tumor Volume ([1]; Day 14, IgG1 (10 mg/kg), 10 mg/kg): 109.71 mm^3 and 110.99 mm^3 and 134.85 mm^3 and 153.36 mm^3 and 165.63 mm^3
- Tumor Length [1, 6]: 7.91 mm and 7.24 mm and 8.45 mm and 8.16 mm and 8.08 mm
- Tumor Volume [1, 6]: 151.02 mm^3 and 169.58 mm^3 and 185.12 mm^3 and 218.31 mm^3 and 231.55 mm^3
- Tumor Width [1, 6]: 6.04 mm and 6.69 mm and 6.47 mm and 7.15 mm and 7.4 mm
- Tumor Volume ([1]; Day 18, IgG1 (10 mg/kg), 10 mg/kg): 132.18 mm^3 and 141.82 mm^3 and 163.82 mm^3 and 192.29 mm^3 and 204.50 mm^3
- Tumor Length [1, 7]: 8.92 mm and 8.5 mm and 8.53 mm and 8.19 mm and 8.49 mm
- Tumor Volume [1, 7]: 191.80 mm^3 and 234.46 mm^3 and 261.25 mm^3 and 271.57 mm^3 and 289.36 mm^3
- Tumor Width [1, 7]: 6.41 mm and 7.26 mm and 7.65 mm and 7.96 mm and 8.07 mm
- Tumor Volume ([1]; Day 21, IgG1 (10 mg/kg), 10 mg/kg): 218.53 mm^3 and 193.54 mm^3 and 221.69 mm^3 and 223.66 mm^3 and 268.23 mm^3
- Tumor Length [1, 8]: 8.73 mm and 9.67 mm and 9.91 mm and 9.97 mm and 9.69 mm
- Tumor Volume [1, 8]: 234.87 mm^3 and 334.49 mm^3 and 386.25 mm^3 and 465.95 mm^3 and 468.33 mm^3
- Tumor Width [1, 8]: 7.17 mm and 8.13 mm and 8.63 mm and 9.45 mm and 9.61 mm
- Tumor Volume ([1]; Day 25, IgG1 (10 mg/kg), 10 mg/kg): 227.79 mm^3 and 282.78 mm^3 and 300.56 mm^3 and 329.18 mm^3 and 336.90 mm^3
- Tumor Length [1, 9]: 9.76 mm and 9.79 mm and 10.39 mm and 11.02 mm and 10.87 mm
- Tumor Volume [1, 9]: 333.47 mm^3 and 459.47 mm^3 and 555.77 mm^3 and 603.55 mm^3 and 637.97 mm^3
- Tumor Width [1, 9]: 8.08 mm and 9.47 mm and 10.11 mm and 10.23 mm and 10.59 mm
- Tumor Volume ([1]; Day 28, IgG1 (10 mg/kg), 10 mg/kg): 231.00 mm^3 and 313.49 mm^3 and 338.93 mm^3 and 402.03 mm^3 and 419.55 mm^3
- Tumor weight after 28 days ([1]; IgG1 5 mg/kg, 5 mg/kg): 0.486 grams and 0.535 grams and 0.567 grams and 0.502 grams and 0.625 grams
- Tumor weight after 28 days ([1]; IgG1 10 mg/kg, 10 mg/kg): 0.341 grams and 0.302 grams and 0.267 grams and 0.285 grams and 0.386 grams
- Tumor weight after 28 days ([1]; IgG1 15 mg/kg, 15 mg/kg): 0.215 grams and 0.202 grams and 0.246 grams and 0.253 grams and 0.291 grams
- Tumor weight after 28 days ([1]; IgG1 25 mg/kg, 25 mg/kg): 0.158 grams and 0.184 grams and 0.191 grams and 0.204 grams and 0.211 grams
- Tumor weight after 28 days ([1]; IgG1 40 mg/kg, 40 mg/kg): 0.128 grams and 0.195 grams and 0.199 grams and 0.205 grams and 0.206 grams
- tumor inhibition level versus dosage ([1]; anti-CD14-IgG1 5 mg/kg to 15 mg/kg, 28 days): significantly increase with the dosage
- tumor inhibition rate versus dosage ([1]; anti-CD14-IgG1 15 mg/kg to 40 mg/kg, 28 days): tumor inhibition rate remaining the same across the three groups
- koff (1:1 binding) [2]: 0.000858 s⁻¹
- kon (1:1 binding) [2]: 1.77e+06 M⁻¹ s⁻¹
